One test has as its target VPS29–VPS35C subcomplex (UniProt Q96QK1;Q9UBQ0). Briefly: crystal structure.
The target in test [1] is VPS29 (as expressed for the complexes, pMR101A‐VPS29) (UniProt Q9UBQ0). The test can be described thus: crystal structure.

Turning to SNIFDDPLNAFGGQ [peptide FAM21‐R21 (1328-SNIFDDPLNAFGGQ-1341)], the binding result (with VPS29–VPS35C subcomplex; in test [1]) was “binds” throughout.

The values above are taken from publication PMC11010949 (Protein Science : A Publication of the Protein Society, 2024).
